Laboratory results published in paper PMC12616241 (2025).

Assays:
Assay in all cases: SPR
[1] = target: FcγRIIa-R131
[2] = target: FcγRIIa-H131
[3] = target: FcγRIIIa-V158 (His-tagged recombinant) (human)
[4] = target: FcγRIIIa-F158 (His-tagged recombinant) (human, UniProt P08637 17-208)
FcγRIIIa-F158 (His-tagged recombinant), sequence (P08637 17-208): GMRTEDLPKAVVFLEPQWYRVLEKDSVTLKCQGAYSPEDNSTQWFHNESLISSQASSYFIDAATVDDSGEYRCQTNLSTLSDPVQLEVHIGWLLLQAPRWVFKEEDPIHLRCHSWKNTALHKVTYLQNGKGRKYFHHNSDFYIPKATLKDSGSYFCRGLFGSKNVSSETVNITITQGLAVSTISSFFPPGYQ

FcγRIIIa-V158 (His-tagged recombinant) (human), sequence (chain, as listed by the source): as the sequence (P08637 17-208) above, with F160V counted along it

B1: margetuximab (antibody)
chain 1: QVQLQQSGPELVKPGASLKLSCTASGFNIKDTYIHWVKQRPEQGLEWIGRIYPTNGYTRYDPKFQDKATITADTSSNTAYLQVSRLTSEDTAVYYCSRWGGDGFYAMDYWGQGASVTVSS
chain 2: DIVMTQSHKFMSTSVGDRVSITCKASQDVNTAVAWYQQKPGHSPKLLIYSASFRYTGVPDRFTGSRSGTDFTFTISSVQAEDLAVYYCQQHYTTPPTFGGGTKVEIK
Question: How did the Kd [1] turn out when B1 was run?
Answer: 1440 nM

Question: What about the Kd [2] of the same binder?
Answer: 764 nM

Question: And the Kd [3]?
Answer: 91.7 nM

Question: What about the Kd [4] of the same binder?
Answer: 113 nM
